# Measurements published in publication PMC6994259 (Nature, 2020).
# T1: Sgf73 (S. cerevisiae, UniProt P53165 1-657)
# T1 sequence: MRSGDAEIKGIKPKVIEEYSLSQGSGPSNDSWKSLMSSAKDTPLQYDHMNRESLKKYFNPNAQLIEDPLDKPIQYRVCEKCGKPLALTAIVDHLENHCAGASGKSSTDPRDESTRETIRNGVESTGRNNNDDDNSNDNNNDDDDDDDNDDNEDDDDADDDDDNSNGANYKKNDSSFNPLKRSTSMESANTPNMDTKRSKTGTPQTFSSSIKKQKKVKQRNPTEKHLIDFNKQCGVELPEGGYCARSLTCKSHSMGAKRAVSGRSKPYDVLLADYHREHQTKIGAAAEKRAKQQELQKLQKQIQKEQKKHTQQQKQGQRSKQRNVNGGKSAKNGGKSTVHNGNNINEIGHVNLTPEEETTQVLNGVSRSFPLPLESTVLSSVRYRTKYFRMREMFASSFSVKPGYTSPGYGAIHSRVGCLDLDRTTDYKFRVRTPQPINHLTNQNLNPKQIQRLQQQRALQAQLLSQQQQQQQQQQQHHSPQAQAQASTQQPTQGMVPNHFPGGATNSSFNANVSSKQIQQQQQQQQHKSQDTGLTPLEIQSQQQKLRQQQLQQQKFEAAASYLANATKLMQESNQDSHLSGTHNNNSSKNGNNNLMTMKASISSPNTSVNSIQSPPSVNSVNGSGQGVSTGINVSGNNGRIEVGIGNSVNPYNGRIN
# T2: Spt20 (S. cerevisiae, UniProt P50875 1-604)
# T2 sequence: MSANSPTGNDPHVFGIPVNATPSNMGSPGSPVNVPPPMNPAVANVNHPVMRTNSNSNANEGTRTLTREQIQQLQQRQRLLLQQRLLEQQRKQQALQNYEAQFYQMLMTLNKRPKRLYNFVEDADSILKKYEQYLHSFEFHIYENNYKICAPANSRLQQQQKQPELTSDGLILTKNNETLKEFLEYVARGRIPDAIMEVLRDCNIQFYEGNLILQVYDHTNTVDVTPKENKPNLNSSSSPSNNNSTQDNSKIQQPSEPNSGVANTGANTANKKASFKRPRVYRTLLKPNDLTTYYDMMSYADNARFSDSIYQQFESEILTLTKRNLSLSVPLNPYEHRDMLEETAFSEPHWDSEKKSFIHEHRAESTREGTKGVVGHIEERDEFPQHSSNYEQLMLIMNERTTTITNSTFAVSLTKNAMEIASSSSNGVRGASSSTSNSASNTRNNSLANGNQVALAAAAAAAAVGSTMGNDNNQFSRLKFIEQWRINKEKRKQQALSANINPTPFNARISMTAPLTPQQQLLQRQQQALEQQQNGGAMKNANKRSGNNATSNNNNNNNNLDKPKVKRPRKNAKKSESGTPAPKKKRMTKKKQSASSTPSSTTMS
# B1: Ada1 (natural protein)
# chain: MSAIQSPAPKPLQPTYPAASPASTNAYMKPGLIGSPAVSNHTEPNNGNNETAEPQGPNQRIDLGAMIEELTSLLGKESWTKYAQIISLFILGKLSRKELSNELELVFSPSAASLEKSNTNHHHSLVRLHNQLLLGIFANSLRENPLGRNGNESSWGFGNGSNNPNNKLKRINKHNSQIEVYKKIVMSLPLNDRNRLKMITKEAGKRGFIFCSVFQARLNNIPKIPIVTNPESLKRVKSNNLKTPLEWSQDIMNGFNVPLASESHSLPDTDSFYLRMVGIAREHGLVGTVDARCVELISLALDQYLKNIIEFTIDTVRYRRKKYSDYYDLNESGLYKSVSEMAADKRDAKIKQLDDDKNEDECADEAKSINNGNNSSKDDIGDISMSSITKAGEAVNEELHENRTISLTNEDIYDSLSIFPNLVEPSGSYYALTNLGLVNDDELVDMKSNIDDLPDFLNEKPTFTPLDERNVGTRHELNWLIKGILTED
# B2: Taf12 (natural protein)
# chain: MSSNPENSGVNANNNTGTGNADAITGAQQNMVLQPRQLQEMAAKFRTLLTEARNVGETTPRGKELMFQAAKIKQVYDALTLNRRRQQAAQAYNNTSNSNSSNPASIPTENVPNSSQQQQQQQQQTRNNSNKFSNMIKQVLTPEENQEYEKLWQNFQVRHTSIKEKETYLKQNIDRLEQEINKQTDEGPKQQLQEKKIELLNDWKVLKIEYTKLFNNYQNSKKTFYVECARHNPALHKFLQESTQQQRVQQQRVQQQQQQQQQQQQQQQQQQQQQQQRQGQNQRKISSSNSTEIPSVTGPDALKSQQQQQNTITATNNPRGNVNTSQTEQSKAKVTNVNATASMLNNISSSKSAIFKQTEPAIPISENISTKTPAPVAYRSNRPTITGGSAMNASALNTPATTKLPPYEMDTQRVMSKRKLRELVKTVGIDEGDGETVIDGDVEELLLDLADDFVTNVTAFSCRLAKHRKSDNLEARDIQLHLERNWNIRIPGYSADEIRSTRKWNPSQNYNQKLQSITSDKVAAAKNNGNNVASLNTKK
# Columns and labels:
# Experiment in all cases: cryo-EM structure
# [1] = target: T1, Sgf73
# [2] = target: B2
# [3] = target: Tra1 (S. cerevisiae, UniProt P38811 1-3744)
# Tra1, sequence (P38811 whole entry): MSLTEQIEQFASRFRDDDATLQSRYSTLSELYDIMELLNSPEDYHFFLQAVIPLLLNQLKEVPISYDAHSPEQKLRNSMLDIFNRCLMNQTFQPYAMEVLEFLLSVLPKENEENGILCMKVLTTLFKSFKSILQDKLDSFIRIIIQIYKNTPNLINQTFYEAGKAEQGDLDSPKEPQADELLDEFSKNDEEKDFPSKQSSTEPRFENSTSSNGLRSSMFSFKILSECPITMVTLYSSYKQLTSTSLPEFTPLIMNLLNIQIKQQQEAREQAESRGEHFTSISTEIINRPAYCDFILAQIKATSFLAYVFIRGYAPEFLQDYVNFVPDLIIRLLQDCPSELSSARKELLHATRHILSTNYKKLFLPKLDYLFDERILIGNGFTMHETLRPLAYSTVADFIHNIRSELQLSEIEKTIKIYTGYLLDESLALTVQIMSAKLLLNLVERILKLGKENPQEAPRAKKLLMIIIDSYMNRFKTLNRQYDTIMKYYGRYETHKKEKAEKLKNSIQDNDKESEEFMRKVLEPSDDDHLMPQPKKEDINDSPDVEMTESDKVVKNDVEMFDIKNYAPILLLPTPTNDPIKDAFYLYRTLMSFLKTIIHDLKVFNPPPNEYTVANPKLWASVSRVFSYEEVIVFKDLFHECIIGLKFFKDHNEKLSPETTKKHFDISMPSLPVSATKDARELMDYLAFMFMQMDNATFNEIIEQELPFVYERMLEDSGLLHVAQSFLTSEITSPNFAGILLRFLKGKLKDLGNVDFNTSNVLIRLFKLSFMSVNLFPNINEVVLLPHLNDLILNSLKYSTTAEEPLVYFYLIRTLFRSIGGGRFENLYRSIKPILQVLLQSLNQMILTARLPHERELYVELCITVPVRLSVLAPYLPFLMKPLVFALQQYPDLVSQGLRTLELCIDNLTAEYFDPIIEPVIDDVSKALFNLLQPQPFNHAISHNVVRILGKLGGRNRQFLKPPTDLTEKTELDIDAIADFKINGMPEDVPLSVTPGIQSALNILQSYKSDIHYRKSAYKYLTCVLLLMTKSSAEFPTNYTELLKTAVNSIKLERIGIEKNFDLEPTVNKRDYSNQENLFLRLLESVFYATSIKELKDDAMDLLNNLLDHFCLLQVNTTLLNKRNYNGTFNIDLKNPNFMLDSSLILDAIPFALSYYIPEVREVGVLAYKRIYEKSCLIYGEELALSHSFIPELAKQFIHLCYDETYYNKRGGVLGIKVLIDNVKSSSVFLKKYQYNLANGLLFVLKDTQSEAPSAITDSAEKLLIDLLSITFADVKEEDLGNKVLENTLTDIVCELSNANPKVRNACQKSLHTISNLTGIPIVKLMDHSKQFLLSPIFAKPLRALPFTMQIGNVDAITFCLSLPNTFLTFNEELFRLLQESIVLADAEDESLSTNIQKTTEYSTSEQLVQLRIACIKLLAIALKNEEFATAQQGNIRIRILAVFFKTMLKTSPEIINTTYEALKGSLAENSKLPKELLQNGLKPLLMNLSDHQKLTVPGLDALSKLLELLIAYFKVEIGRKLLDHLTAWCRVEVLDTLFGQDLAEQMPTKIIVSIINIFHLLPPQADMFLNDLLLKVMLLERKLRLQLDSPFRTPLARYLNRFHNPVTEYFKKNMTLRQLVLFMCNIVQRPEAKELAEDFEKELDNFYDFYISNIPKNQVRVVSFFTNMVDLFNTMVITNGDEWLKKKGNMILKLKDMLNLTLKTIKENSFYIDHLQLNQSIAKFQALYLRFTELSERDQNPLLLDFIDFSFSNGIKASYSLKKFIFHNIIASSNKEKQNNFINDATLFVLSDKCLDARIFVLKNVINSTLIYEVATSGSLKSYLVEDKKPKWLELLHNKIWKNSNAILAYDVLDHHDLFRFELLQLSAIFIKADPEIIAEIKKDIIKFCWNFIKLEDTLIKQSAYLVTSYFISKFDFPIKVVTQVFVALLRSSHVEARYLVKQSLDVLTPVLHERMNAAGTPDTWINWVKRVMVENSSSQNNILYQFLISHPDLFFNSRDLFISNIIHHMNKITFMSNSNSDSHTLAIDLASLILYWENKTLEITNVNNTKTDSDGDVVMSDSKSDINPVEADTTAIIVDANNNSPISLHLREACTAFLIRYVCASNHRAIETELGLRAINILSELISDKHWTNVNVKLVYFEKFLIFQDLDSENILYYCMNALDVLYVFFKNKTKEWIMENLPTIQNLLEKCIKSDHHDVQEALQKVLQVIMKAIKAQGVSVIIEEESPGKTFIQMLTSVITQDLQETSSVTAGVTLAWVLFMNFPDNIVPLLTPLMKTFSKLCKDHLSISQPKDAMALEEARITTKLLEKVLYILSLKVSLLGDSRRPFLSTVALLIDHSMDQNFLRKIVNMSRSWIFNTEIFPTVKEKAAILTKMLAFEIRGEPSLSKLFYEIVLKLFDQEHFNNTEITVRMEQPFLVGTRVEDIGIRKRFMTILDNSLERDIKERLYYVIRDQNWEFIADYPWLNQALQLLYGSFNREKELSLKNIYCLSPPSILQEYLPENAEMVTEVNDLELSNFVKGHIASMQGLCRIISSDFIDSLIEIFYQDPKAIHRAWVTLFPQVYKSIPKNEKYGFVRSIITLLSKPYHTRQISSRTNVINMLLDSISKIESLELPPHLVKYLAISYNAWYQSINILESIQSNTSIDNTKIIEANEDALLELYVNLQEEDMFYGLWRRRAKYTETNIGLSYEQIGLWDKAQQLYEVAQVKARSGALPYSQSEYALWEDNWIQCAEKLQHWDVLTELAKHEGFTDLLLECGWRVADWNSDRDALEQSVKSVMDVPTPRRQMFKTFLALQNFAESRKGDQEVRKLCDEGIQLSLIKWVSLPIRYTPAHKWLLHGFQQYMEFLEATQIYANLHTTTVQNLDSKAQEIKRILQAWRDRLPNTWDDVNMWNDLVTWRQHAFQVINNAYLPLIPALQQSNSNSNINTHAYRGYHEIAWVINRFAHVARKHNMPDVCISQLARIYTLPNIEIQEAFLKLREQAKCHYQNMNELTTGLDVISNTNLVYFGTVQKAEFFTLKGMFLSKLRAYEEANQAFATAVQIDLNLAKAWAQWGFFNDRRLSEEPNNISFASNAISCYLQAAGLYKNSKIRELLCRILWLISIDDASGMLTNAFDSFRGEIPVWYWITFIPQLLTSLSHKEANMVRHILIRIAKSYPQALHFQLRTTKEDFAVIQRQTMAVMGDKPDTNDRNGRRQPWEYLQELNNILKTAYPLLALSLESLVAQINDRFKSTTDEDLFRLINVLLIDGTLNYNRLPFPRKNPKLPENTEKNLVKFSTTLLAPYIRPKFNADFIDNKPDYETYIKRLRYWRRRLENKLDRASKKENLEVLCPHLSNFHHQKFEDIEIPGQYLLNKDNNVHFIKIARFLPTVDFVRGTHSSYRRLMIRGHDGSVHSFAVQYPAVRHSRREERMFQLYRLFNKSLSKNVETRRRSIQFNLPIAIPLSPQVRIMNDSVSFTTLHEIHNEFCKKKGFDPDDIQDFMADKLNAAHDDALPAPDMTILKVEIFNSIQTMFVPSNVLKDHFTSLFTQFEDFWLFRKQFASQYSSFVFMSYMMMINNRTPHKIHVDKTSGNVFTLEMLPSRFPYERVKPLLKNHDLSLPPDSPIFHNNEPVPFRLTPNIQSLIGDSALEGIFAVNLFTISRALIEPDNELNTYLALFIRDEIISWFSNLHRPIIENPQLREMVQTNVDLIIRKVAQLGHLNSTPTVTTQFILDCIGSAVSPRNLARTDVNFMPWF
# [4] = target: T2, Spt20
binder,measurement,setting,value
B1,binding result,[1],binds
same,binding result,[2],binds
B2,binding result,[3],binds
same,binding result,[4],binds
same,binding result,[1],binds
